Here are results for 2 molecules from US20250002574A1 (SUNSHINE LAKE PHARMA, published 2025).

Assay [1] addresses T1, recombinant OSM (Genscript-z03132) (UniProt P13725 26-221, limits assumed).
T1 sequence (looked up): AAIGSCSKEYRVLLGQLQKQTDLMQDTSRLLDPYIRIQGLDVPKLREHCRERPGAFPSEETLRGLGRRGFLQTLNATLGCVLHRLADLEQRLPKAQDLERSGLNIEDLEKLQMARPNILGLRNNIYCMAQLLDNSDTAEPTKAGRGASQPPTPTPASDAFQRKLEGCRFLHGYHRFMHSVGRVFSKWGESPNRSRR
In words: ELISA, cytokine coated. (In general: An ELISA detects its analyte on a solid surface through an enzyme-linked reagent.)

Assay [2] addresses T2, recombinant CLC (R&D systems, 962-CL-050) (UniProt Q9UBD9 28-225).
T2 sequence (looked up): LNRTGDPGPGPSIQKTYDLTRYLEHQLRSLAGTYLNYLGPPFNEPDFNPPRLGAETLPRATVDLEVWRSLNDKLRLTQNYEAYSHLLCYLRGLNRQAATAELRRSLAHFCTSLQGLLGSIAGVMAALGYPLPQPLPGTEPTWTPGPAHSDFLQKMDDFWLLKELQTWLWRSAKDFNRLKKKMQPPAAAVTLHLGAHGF
In words: ELISA, cytokine coated.

Assay [3] concerns the target T3, recombinant LIF (Peprotech, 300-05) (UniProt P15018 23-202). The assay is described as follows: ELISA, cytokine coated.
Assay [4] deals with T4, recombinant IL-31 (Peprotech, 200-31) (UniProt Q6EBC2 24-164).
T4 sequence (looked up): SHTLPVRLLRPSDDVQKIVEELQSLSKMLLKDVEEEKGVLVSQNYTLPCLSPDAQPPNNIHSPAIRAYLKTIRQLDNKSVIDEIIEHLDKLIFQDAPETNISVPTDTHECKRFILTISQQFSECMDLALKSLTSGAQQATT
The assay is described as follows: ELISA, cytokine coated.

In assay [5] the target is T5, recombinant CNTF (R&D systems, 257-NT-010) (UniProt P26441 2-200).
T5 sequence (looked up): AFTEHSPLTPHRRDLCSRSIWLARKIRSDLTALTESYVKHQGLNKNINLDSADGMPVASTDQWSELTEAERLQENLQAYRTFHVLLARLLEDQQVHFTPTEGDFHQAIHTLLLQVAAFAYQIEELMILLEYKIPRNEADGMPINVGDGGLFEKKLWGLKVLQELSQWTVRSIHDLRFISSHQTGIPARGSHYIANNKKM
The assay is described as follows: ELISA, cytokine coated.

Assay [6] addresses T6, recombinant CT-1 (R&D systems, 612-CD-010) (UniProt Q16619 2-201).
T6 sequence (looked up): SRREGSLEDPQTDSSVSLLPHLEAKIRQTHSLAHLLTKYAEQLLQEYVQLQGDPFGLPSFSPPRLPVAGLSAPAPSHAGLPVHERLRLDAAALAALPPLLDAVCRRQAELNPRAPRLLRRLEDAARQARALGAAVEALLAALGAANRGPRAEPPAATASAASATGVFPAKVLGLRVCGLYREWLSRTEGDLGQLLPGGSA
In words: ELISA, cytokine coated.

For assay [7], the target named is T7, recombinant IL-6 (Sinobiological-10395-HNAE) (UniProt P05231 30-212). The assay is described as follows: ELISA, cytokine coated.
Assay [8] concerns the target T8, recombinant IL-27 (R&D systems, 2526-IL-010) (UniProt Q8NEV9 29-243; Q14213 21-229).
T8 construct: the bought product may be a single-chain fusion
T8 sequence (looked up) 1: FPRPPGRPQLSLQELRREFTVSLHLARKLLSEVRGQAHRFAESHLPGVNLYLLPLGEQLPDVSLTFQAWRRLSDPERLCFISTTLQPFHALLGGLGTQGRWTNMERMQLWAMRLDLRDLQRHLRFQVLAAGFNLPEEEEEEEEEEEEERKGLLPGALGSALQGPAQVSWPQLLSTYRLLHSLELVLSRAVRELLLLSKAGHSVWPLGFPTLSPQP
T8 sequence (looked up) 2: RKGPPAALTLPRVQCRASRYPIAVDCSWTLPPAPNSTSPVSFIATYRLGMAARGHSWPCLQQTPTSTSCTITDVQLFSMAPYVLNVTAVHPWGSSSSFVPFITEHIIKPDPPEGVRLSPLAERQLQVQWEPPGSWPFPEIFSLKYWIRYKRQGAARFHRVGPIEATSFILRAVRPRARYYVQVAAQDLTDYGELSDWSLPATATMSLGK
In words: ELISA, cytokine coated.

Assay [9] concerns the target T1, recombinant OSM (Genscript-z03132). In words: ELISA, cytokine coated. The source holds these as a separate data set.
The target of assay [10] is T2, recombinant CLC (R&D systems, …). The assay is described as follows: ELISA, cytokine coated. This is another data set of the same source.
The target in assay [11] is T3, recombinant LIF (Peprotech, 300-05). The assay is described as follows: ELISA, cytokine coated. The source holds these as a separate data set.
Assay [12] deals with T4, recombinant IL-31 (Peprotech, 200-31). The assay is described as follows: ELISA, cytokine coated. This is another data set of the same source.
Assay [13] deals with T5, recombinant CNTF (R&D systems, …). In words: ELISA, cytokine coated. This is another data set of the same source.
Assay [14] has as its target T6, recombinant CT-1 (R&D systems, …). The assay is described as follows: ELISA, cytokine coated. This is another data set of the same source.
In assay [15] the target is T9, recombinant IL-11 (LSBio, LS-G132887-10) (UniProt P20809 22-199).
T9 sequence (looked up): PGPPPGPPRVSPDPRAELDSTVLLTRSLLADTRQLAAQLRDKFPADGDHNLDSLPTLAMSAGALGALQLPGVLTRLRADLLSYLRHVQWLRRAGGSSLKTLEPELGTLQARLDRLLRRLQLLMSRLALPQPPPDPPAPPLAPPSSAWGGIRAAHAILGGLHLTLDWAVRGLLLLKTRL
The assay is described as follows: ELISA, cytokine coated.

The target in assay [16] is T7, recombinant IL-6 …. The assay is described as follows: ELISA, cytokine coated. The source holds these as a separate data set.
Assay [17] has as its target T8, recombinant IL-27 (R&D systems, …). The assay is described as follows: ELISA, cytokine coated. This is another data set of the same source.
The target of assay [18] is T10, recombinant human protein antigen hu-IL-11-His tag (human, UniProt P20809 22-199).
T10 construct: also called IL-11-His protein; not shown: His tag
T10 sequence (looked up): T9 sequence (looked up)
The assay is described as follows: BLI (Octet QKe), IL-11 (His tag) on Ni-NTA sensor, antibody as analyte. How it is done: The analytes were diluted in 7 concentration gradients, the binding time was 60 s and the dissociation time was 1000 s. The buffer was 20 mM PBS, 0.15M NaCl, 0.1% BSA, 0.05% Tween 20, pH 7.4. […] In this example, Pall ForteBio (Octet QKe) instrument was used to determine the affinity of antibodies for antigens.
Background: Biolayer interferometry detects binding as a change in optical thickness at a sensor tip.

The target in assay [19] is T11, IL-11-Fc protein (UniProt P20809 22-199, limits assumed).
T11 construct: also called IL-11 recombinant protein with Fc tag; not shown: Fc tag
T11 sequence (looked up): T9 sequence (looked up)
In words: flow cytometry competition: IL-11-Fc plus antibody on membrane-IL-11R CHO cells. The text has this: The secondary antibody (Goat-anti-Fc-FITC) (Abcam, ab98529) conjugated with FITC fluorophore was used for detection.
(In general: A flow cytometer gives signals particle by particle.)

T3 sequence (P15018 23-202 limits assumed): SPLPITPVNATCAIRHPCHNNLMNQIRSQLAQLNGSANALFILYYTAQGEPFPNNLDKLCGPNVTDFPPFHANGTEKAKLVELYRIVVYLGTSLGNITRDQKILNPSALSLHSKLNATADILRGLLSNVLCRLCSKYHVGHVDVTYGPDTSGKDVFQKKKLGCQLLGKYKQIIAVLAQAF

B1: 5-20E11-5F2 (recombinant, expressed in CHO, Example 6) (antibody, human IgG1, kappa, V domains shown)
VH: QVQLQQSGAELVRPGTSAKISCKASDYTFTNYWLGWLKQRPGHGLEWIGHIYPGGGYTNYNEKFKGKATLTADTSSSTAYMQLSSLTSEDSAVYFCARVRSGNDALDFWGQGTSVTVSS
VL: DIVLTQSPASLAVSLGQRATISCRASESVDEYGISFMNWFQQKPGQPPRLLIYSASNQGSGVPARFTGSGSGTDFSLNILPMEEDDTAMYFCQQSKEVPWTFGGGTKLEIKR
One may read the Kd as the concentration at which binding is half-saturated. By koff is commonly meant a measure of how fast the partners let go of each other. As usually defined, the kon is the second-order rate constant of association. Broadly, the IC50 is the midpoint of a concentration-inhibition curve. As to B1, the binding result in assay [1], in assay [2], in [3], in assay [4], in [5] and in assay [6] was “no binding” throughout. Further, the binding result in assay [7] and in [8] was “no binding” throughout. Also, the OD450 nm in assay [9] came to 0.045 OD450; in assay [10] it was 0.033 OD450; in assay [11], 0.037 OD450; in assay [12] it was 0.036 OD450; in assay [13] it was 0.036 OD450; in assay [14], 0.034 OD450. The OD450 nm stood at 1.93 OD450 in assay [15], 0.049 OD450 in assay [16] and 0.048 OD450 in [17]. Moreover, the Kd in assay [18] is 0.069 nM. In addition, the koff in [18] stood at 1.21e-05 s⁻¹. The kon in [18] amounted to 175000 M⁻¹ s⁻¹. Moreover, the 50% inhibitory concentration (IC50) in assay [19] was about 21 µg/mL.

B2: 3-6A4 (recombinant, expressed in CHO, Example 6) (antibody, human IgG1, kappa, V domains shown)
VH: QIQLVQSGPELKKPGETVKISCKASGYTFTTNGINWVKQAAGKGLKWMGWINTNTGEPTNAEELKGRFAFSLETSASTAYLQINNLKNEDAAIYFCAREGAFGLDYWGQGTSVTVSS
VL: SIVMTQSPKFLLVSAGDRVIITCKASQSVSNDVVWYQQKPGQSPKLLIYYGSHRNTGVPTRFTGSGYGTDFTFTISTVQAEDLAVYFCQQDFFSPWTFGGGTKLEIKR
On to B2, for which the binding result in assay [1], in [2], in assay [3], in assay [4], in assay [5] and in assay [6] was “no binding” in each case. The binding result in assay [7] and in [8] was “no binding” in each case. Moreover, the OD450 nm in assay [9] was determined as 0.102 OD450; in [10], 0.042 OD450; in [11], 0.084 OD450; in assay [12], 0.088 OD450; in assay [13], 0.064 OD450; in assay [14] it was 0.041 OD450. In addition, the OD450 nm in assay [15] was 1.88 OD450; in [16], 0.039 OD450; in [17], 0.035 OD450. In addition, in assay [18], the equilibrium dissociation constant (Kd) turned out to be 0.0393 nM. For the same molecule, the off-rate (koff) in assay [18] came to 4.16e-05 s⁻¹. Moreover, the on-rate constant (kon) in assay [18] was found to be 1.06e+06 M⁻¹ s⁻¹. For the same molecule, in assay [19], the IC50 was about 7 µg/mL.
